Measured values reported in paper PMC6660772, “Structure of KAP1 tripartite motif identifies molecular interfaces required for retroelement silencing” (Proceedings of the National Academy of Sciences of the …, 2019).
Where a chain is given by its changes, count along the chain named. Names and notes keep the numbering of the source.

B1: full-length KAP1 (residues 1-835) (natural protein, human, UniProt Q13263 1-835, looked up)
chain: MAASAAAASAAAASAASGSPGPGEGSAGGEKRSTAPSAAASASASAAASSPAGGGAEALELLEHCGVCRERLRPEREPRLLPCLHSACSACLGPAAPAAANSSGDGGAAGDGTVVDCPVCKQQCFSKDIVENYFMRDSGSKAATDAQDANQCCTSCEDNAPATSYCVECSEPLCETCVEAHQRVKYTKDHTVRSTGPAKSRDGERTVYCNVHKHEPLVLFCESCDTLTCRDCQLNAHKDHQYQFLEDAVRNQRKLLASLVKRLGDKHATLQKSTKEVRSSIRQVSDVQKRVQVDVKMAILQIMKELNKRGRVLVNDAQKVTEGQQERLERQHWTMTKIQKHQEHILRFASWALESDNNTALLLSKKLIYFQLHRALKMIVDPVEPHGEMKFQWDLNAWTKSAEAFGKIVAERPGTNSTGPAPMAPPRAPGPLSKQGSGSSQPMEVQEGYGFGSGDDPYSSAEPHVSGVKRSRSGEGEVSGLMRKVPRVSLERLDLDLTADSQPPVFKVFPGSTTEDYNLIVIERGAAAAATGQPGTAPAGTPGAPPLAGMAIVKEEETEAAIGAPPTATEGPETKPVLMALAEGPGAEGPRLASPSGSTSSGLEVVAPEGTSAPGGGPGTLDDSATICRVCQKPGDLVMCNQCEFCFHLDCHLPALQDVPGEEWSCSLCHVLPDLKEEDGSLSLDGADSTGVVAKLSPANQRKCERVLLALFCHEPCRPLHQLATDSTFSLDQPGGTLDLTLIRARLQEKLSPPYSSPQEFAQDVGRMFKQFNKLTEDKADVQSIIGLQRFFETRMNEAFGDTKFSAVLVEPPPMSLPGAGLSSQELSGGPGDGP
notes: KAP1 (TRIM28), human, UniProt Q13263, full length, residues 1-835; Purified as T4L-RBCC, that is without removal of the His6 tag; a TEV site (ENLYFQG) lies between tag and protein; also called TRIM28; TIF1β; source: also coexpressed with MBP-KRAB in E. coli and co-purified (StrepTrap, Superose 6 SEC); not shown: His6, N-terminal, kept
B2: KAP1 RING-B-box 1 (RB1; residues 50-200) (domain or fragment, human, UniProt Q13263 50-200, looked up)
chain: SPAGGGAEALELLEHCGVCRERLRPEREPRLLPCLHSACSACLGPAAPAAANSSGDGGAAGDGTVVDCPVCKQQCFSKDIVENYFMRDSGSKAATDAQDANQCCTSCEDNAPATSYCVECSEPLCETCVEAHQRVKYTKDHTVRSTGPAKS
notes: KAP1 (TRIM28), human, UniProt Q13263, residues 50-200 (RING and B-box 1); also called RING-B-box 1 fragment; RING-Box-1 fragment; not shown: His6, N-terminal, cleaved
B3: KAP1 RBCC V114A/Q123A/F125A/K127A (RING domain mutant) (domain or fragment, human, UniProt Q13263 50-413, looked up)
chain: SPAGGGAEALELLEHCGVCRERLRPEREPRLLPCLHSACSACLGPAAPAAANSSGDGGAAGDGTAVDCPVCKQACASADIVENYFMRDSGSKAATDAQDANQCCTSCEDNAPATSYCVECSEPLCETCVEAHQRVKYTKDHTVRSTGPAKSRDGERTVYCNVHKHEPLVLFCESCDTLTCRDCQLNAHKDHQYQFLEDAVRNQRKLLASLVKRLGDKHATLQKSTKEVRSSIRQVSDVQKRVQVDVKMAILQIMKELNKRGRVLVNDAQKVTEGQQERLERQHWTMTKIQKHQEHILRFASWALESDNNTALLLSKKLIYFQLHRALKMIVDPVEPHGEMKFQWDLNAWTKSAEAFGKIVAERP
notes: KAP1 (TRIM28), human, UniProt Q13263, RBCC residues 50-413 with four mutations in the RING domain; also called RBCC with RING domain mutations; source: E. coli BL21 (DE3), purified; not shown: His6, N-terminal, cleaved
B4: KAP1 RBCC (residues 50-413), wild type (domain or fragment, human, UniProt Q13263 50-413, looked up)
chain: B3 chain with A65V, A74Q, A76F, A78K
notes: KAP1 (TRIM28), human, UniProt Q13263, residues 50-413 (RING, B-box 1, B-box 2, coiled coil); rows of m3 with m3 give the step in the assay's format; also called KAP1 RBCC motif; KAP1 TRIM; not shown: His6, N-terminal, cleaved
B5: KAP1 RBCC N235A/A236D/K238A/D239A/F244A/L245A (B-box 2 mutant) (domain or fragment, human, UniProt Q13263 50-413, looked up)
chain: B3 chain with A65V, A74Q, A76F, A78K, N186A, A187D, K189A, D190A, F195A, L196A
notes: KAP1 (TRIM28), human, UniProt Q13263, RBCC residues 50-413 with six mutations in and next to B-box 2; also called RBCC with the B-box 2 mutations; source: E. coli BL21 (DE3), purified; not shown: His6, N-terminal, cleaved
B6: Twin-StrepII-MBP-ZNF93 KRAB (KRAB domain residues 1-71 of ZNF93) (domain or fragment)
chain: not shown
notes: ZNF93, UniProt P35789, KRAB domain residues 1-71; The MBP tag was also required for protein solubility; also called MBP-KRAB; ZNF93 MBP-KRAB; source: E. coli BL21 (DE3), purified (StrepTrap, Superdex 200 SEC); also coexpressed with KAP1 in E. coli and co-purified; not shown: Twin-StrepII, N-terminal, kept; MBP, N-terminal, kept

What was measured:
[1] = target: B6; assay: SEC-MALS; full-length KAP1 and ZNF93 MBP-KRAB coexpressed in E. coli and co-purified (StrepTrap, SEC); Superose 6 (10/300), 20 mM Hepes pH 8, 0.5 M NaCl, 0.5 mM TCEP, 293 K; total protein 1.2 g/L; details: both partners purified
[2] = target: the molecule itself; assay: as above
[3] = target: the molecule itself; assay: SEC-MALS; RING-B-box 1 (WT at 33 to 610 µM; B-box 1 mutant); monomer to dimer; Superdex 75 (10/300), 20 mM Hepes pH 8, 0.2 M NaCl, 0.5 mM TCEP, 293 K
[4] = target: the molecule itself; assay: SEC-MALS; KAP1 RBCC at low protein concentration (8.7 µM, 0.35 g/L); monomers to dimer; Superdex 200 (10/300), 20 mM Hepes pH 8, 0.5 M NaCl, 0.5 mM TCEP, 293 K
[5] = target: B4; assay: SPR; Biacore T200, CM5 chip, MBP-KRAB immobilized (~600 RU), KAP1 RBCC flowed over (1:2 dilution series from 34 µM WT, 35 µM mutant), 20 mM Hepes pH 8.0, 0.5 M NaCl, 0.5 mM TCEP, 20 °C; biphasic kinetic model; details: both partners purified

## B1
[1]
  stoichiometry N: 2 KAP1 per KRAB
[2]
  binding result: binds

## B2
[3]
  stoichiometry N: 2

## B3
[4]
  binding result: binds

## B4
[4]
  stoichiometry N: 2

## B5
[4]
  binding result: binds

## B6
[5]
  Kd: 8 ± 2 nM
  koff: 0.00027 s⁻¹
  kon: 36000 M⁻¹ s⁻¹
